Paper PMC11761708

Molecular target: protein G-Fc (Fc specific protein G variant)
Assay: SPR

Kd: 3.8 nM
Substance: human Fc (Fc domain of IgG) (domain or fragment)
